Data reported in US20150011431A1 (Scripps Research, published 2015).

T1: CXCR1 (UniProt P25024 1-350, limits assumed)
T1 construct: whole, on cells; DiscoveRx cells engineered with a luminescent reporter enzyme for beta-arrestin recruitment; also called CXCR1-U2OS; U2OS-CXCR1
T1 sequence (looked up): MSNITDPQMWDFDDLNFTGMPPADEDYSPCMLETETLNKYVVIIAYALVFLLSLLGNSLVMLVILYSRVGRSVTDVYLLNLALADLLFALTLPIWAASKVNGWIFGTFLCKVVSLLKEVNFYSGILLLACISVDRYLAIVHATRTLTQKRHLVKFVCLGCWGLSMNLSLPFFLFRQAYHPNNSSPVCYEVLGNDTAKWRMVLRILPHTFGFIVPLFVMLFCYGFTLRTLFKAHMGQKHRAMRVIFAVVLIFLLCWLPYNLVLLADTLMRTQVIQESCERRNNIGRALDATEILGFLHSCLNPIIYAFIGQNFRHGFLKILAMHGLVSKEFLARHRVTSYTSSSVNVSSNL


Key:
CXCR1 [1] = molecular target: T1, CXCR1; test: flow cytometry, IgG-containing supernatant on CXCR1-U2OS cells, fluorescent anti-human Fc
Method: (§1) In an exemplary method, BLV1H12 IgG comprising a CDR3 with an IL-8 insert (e.g., the IL-8 sequence replaced a portion of the CDR3) was evaluated for binding to CXCR1 expressing cells by flow cytometry. Briefly, a cell line expressing functionally validated CXCR1 derived from U2OS cells was obtained from DiscoveRx and cultured per manufacturer's instructions (Cat#93-0226C3, DiscoveRx Corporation, Freemont, Calif.). The parental cell line U2OS was obtained from ATCC and cultured under the same conditions as the CXCR1 cells. Cell culture supernatants were then tested for binding to cells by flow cytometry. The adherent U2OS or CXCR1-U2OS cells were dissociated with Accutase (Innovative Cell Technologies, Inc., San Diego, Calif.), neutralized with an equal volume of media containing 10% serum, centrifuged at 1000 g, and resuspended in PBS with 2% BSA. Next, cells were dispensed into microtiter plates to achieve between 30,000 to 300,000 cells per well, centrifuged again, and resuspended in cell culture supernatant containing expressed IgG, or a dilution of IgG-containing cell culture supernatant. A fluorescent-conjugated anti-Human Fc antibody was used to detect binding of the expressed antibody to cells.
(§2) Additionally, the human germline CDR3-IL8 IgGs described in Example 5 were evaluated for binding to CXCR1 expressing cells by flow cytometry as described above. IgG binding to CXCR1-U2OS cells is indicated by higher fluorescence values, but non-specific binding to U2OS parental cells is also detectable.

CXCR1 [2] = molecular target: T1, CXCR1; test: flow cytometry; fluorescence on CXCR1-U2OS cells over fluorescence on parental U2OS cells
Method: as §1, §2

CXCR1 [3] = molecular target: T1, CXCR1; test: as above; remark: listed apart in the source
Method: as §1
In an exemplary method, certain residues in VH4-34 CDR1 and/or CDR2 were substituted with corresponding CDR1 and/or CDR2 residues from BLV1H12. Briefly, the pFuse vector encoding heavy chain VH4-34 CDR3-IL8 was modified by overlap PCR to replace all of CDR1 with sequence from BLV1H12 (VH4-34+CDR3-IL8_CDR1 Cow, SEQ ID NO: 432) or all of CDR2 with sequence from BLV1 H12 (VH4-34+CDR3-IL8_CDR2 Cow, SEQ ID NO: 433).

Binder | median fluorescence on CXCR1-U2OS (CXCR1 [1]) | Ratio of CXCR1/Parental (CXCR1 [2]) | FACS CXCR1/Parental Ratio (CXCR1 [3])
IgG with VH1-46+CDR3-IL8 (antibody, IgG; VH cloned before human IgG1 CH1-CH2-CH3 in HC pFuse; cell culture supernatant; also called VH1-46 BLVCDR3IL8) VH: QVQLVQSGAEVKKPGASVKVSCKASGYTFTSYYMHWVRQAPGQGLEWMGIINPSGGSTSYAQKFQGRVTMTRDTSTSTVYMELSSLRSEDTAVYYCTSVHQETKKYQSPRSAKELRCQCIKTYSKPFHPKFIKELRVIESGPHCANTEIIVKLSDGRELCLDPKENWVQRVVEKFLKRAENSGSGSYTYNYEWHVDVWGQGLLVTVSSAS light: not shown | 6 AFU | 1.1 | 
IgG with VH4-34+CDR3-IL8 (antibody, IgG; VH cloned before human IgG1 CH1-CH2-CH3 in HC pFuse; cell culture supernatant; also called VH4-34 BLVCDR3IL8) VH: QVQLQQWGAGLLKPSETLSLTCAVYGGSFSGYYWSWIRQPPGKGLEWIGEINHSGSTNYNPSLKSRVTISVDTSKNQFSLKLSSVTAADTAVYYCTSVHQETKKYQSPRSAKELRCQCIKTYSKPFHPKFIKELRVIESGPHCANTEIIVKLSDGRELCLDPKENWVQRVVEKFLKRAENSGSGSYTYNYEWHVDVWGQGLLVTVSSAS light: not shown | 648 AFU | 9.3 | 9.3
IgG with VH4-34+CDR3-IL8_CDR1 G31D, Y32K and BLV1H12 light chain (antibody, IgG, human IgG1 CH1-CH2-CH3; also called VH4-34 + CDR3-IL8 + E31D, Y32K) VH: QVQLQQWGAGLLKPSETLSLTCAVYGGSFSDKYWSWIRQPPGKGLEWIGEINHSGSTNYNPSLKSRVTISVDTSKNQFSLKLSSVTAADTAVYYCTSVHQETKKYQSPRSAKELRCQCIKTYSKPFHPKFIKELRVIESGPHCANTEIIVKLSDGRELCLDPKENWVQRVVEKFLKRAENSGSGSYTYNYEWHVDVWGQGLLVTVSSAS VL: QAVLNQPSSVSGSLGQRVSITCSGSSSNVGNGYVSWYQLIPGSAPRTLIYGDTSRASGVPDRFSGSRSGNTATLTISSLQAEDEADYFCASAEDSSSNAVFGSGTTLTVLGQPKSPPSVTLFPPSTEELNGNKATLVCLISDFYPGSVTVVWKADGSTITRNVETTRASKQSNSKYAASSYLSLTSSDWKSKGSYSCEVTHEGSTVTKTVKPSECS |  |  | 8.1
IgG with VH4-34+CDR3-IL8_CDR2 E50S and BLV1H12 light chain (antibody, IgG, human IgG1 CH1-CH2-CH3; also called VH4-34 + CDR3-IL8 + E50S) VH: QVQLQQWGAGLLKPSETLSLTCAVYGGSFSGYYWSWIRQPPGKGLEWIGSINHSGSTNYNPSLKSRVTISVDTSKNQFSLKLSSVTAADTAVYYCTSVHQETKKYQSPRSAKELRCQCIKTYSKPFHPKFIKELRVIESGPHCANTEIIVKLSDGRELCLDPKENWVQRVVEKFLKRAENSGSGSYTYNYEWHVDVWGQGLLVTVSSAS VL: QAVLNQPSSVSGSLGQRVSITCSGSSSNVGNGYVSWYQLIPGSAPRTLIYGDTSRASGVPDRFSGSRSGNTATLTISSLQAEDEADYFCASAEDSSSNAVFGSGTTLTVLGQPKSPPSVTLFPPSTEELNGNKATLVCLISDFYPGSVTVVWKADGSTITRNVETTRASKQSNSKYAASSYLSLTSSDWKSKGSYSCEVTHEGSTVTKTVKPSECS |  |  | 4
IgG with VH4-34+CDR3-IL8_CDR1 Cow and BLV1H12 light chain (antibody, IgG, human IgG1 CH1-CH2-CH3; also called VH4-34 + CDR3-IL8 + Cow CDR1) VH: QVQLQQWGAGLLKPSETLSLTCTASGFSLSDKAVGWIRQPPGKGLEWIGEINHSGSTNYNPSLKSRVTISVDTSKNQFSLKLSSVTAADTAVYYCTSVHQETKKYQSPRSAKELRCQCIKTYSKPFHPKFIKELRVIESGPHCANTEIIVKLSDGRELCLDPKENWVQRVVEKFLKRAENSGSGSYTYNYEWHVDVWGQGLLVTVSSAS VL: QAVLNQPSSVSGSLGQRVSITCSGSSSNVGNGYVSWYQLIPGSAPRTLIYGDTSRASGVPDRFSGSRSGNTATLTISSLQAEDEADYFCASAEDSSSNAVFGSGTTLTVLGQPKSPPSVTLFPPSTEELNGNKATLVCLISDFYPGSVTVVWKADGSTITRNVETTRASKQSNSKYAASSYLSLTSSDWKSKGSYSCEVTHEGSTVTKTVKPSECS |  |  | 2.1
IgG with VH4-34+CDR3-IL8_CDR2 Cow and BLV1H12 light chain (antibody, IgG, human IgG1 CH1-CH2-CH3; also called VH4-34 + CDR3-IL8 + Cow CDR2) VH: QVQLQQWGAGLLKPSETLSLTCAVYGGSFSGYYWSWIRQPPGKGLEWLGSIDTGGNTGYNPSLKSRVTISVDTSKNQFSLKLSSVTAADTAVYYCTSVHQETKKYQSPRSAKELRCQCIKTYSKPFHPKFIKELRVIESGPHCANTEIIVKLSDGRELCLDPKENWVQRVVEKFLKRAENSGSGSYTYNYEWHVDVWGQGLLVTVSSAS VL: QAVLNQPSSVSGSLGQRVSITCSGSSSNVGNGYVSWYQLIPGSAPRTLIYGDTSRASGVPDRFSGSRSGNTATLTISSLQAEDEADYFCASAEDSSSNAVFGSGTTLTVLGQPKSPPSVTLFPPSTEELNGNKATLVCLISDFYPGSVTVVWKADGSTITRNVETTRASKQSNSKYAASSYLSLTSSDWKSKGSYSCEVTHEGSTVTKTVKPSECS |  |  | 8
IgG with VH1-69+CDR3-IL8 (antibody, IgG; VH cloned before human IgG1 CH1-CH2-CH3 in HC pFuse; cell culture supernatant; also called VH1-69 BLVCDR3IL8) VH: QVQLVQSGAEVKKPGSSVKVSCKASGGTFSSYAISWVRQAPGQGLEWMGGIIPIFGTANYAQKFQGRVTITADKSTSTAYMELSSLRSEDTAVYYCTSVHQETKKYQSPRSAKELRCQCIKTYSKPFHPKFIKELRVIESGPHCANTEIIVKLSDGRELCLDPKENWVQRVVEKFLKRAENSGSGSYTYNYEWHVDVWGQGLLVTVSSAS light: not shown | 78 AFU | 4 | 
BLV1H12 IgG (antibody, also called ULcowV) VH: QVQLRESGPSLVKPSQTLSLTCTASGFSLSDKAVGWVRQAPGKALEWLGSIDTGGNTGYNPGLKSRLSITKDNSKSQVSLSVSSVTTEDSATYYCTSVHQETKKYQSCPDGYRERSDCSNRPACGTSDCCRVSVFGNCLTTLPVSYSYTYNYEWHVDVWGQGLLVTVSS light: not shown | 9 AFU | 1.9 | 1.9
IgG with VH1-24+CDR3-IL8 (antibody, IgG; VH cloned before human IgG1 CH1-CH2-CH3 in HC pFuse; cell culture supernatant; also called VH1-24 BLVCDR3IL8) VH: QVQLVQSGAEVKKPGASVKVSCKVSGYTLTELSMHWVRQAPGKGLEWMGGFDPEDGETIYAQKFQGRVTMTEDTSTDTAYMELSSLRSEDTAVYYCTSVHQETKKYQSPRSAKELRCQCIKTYSKPFHPKFIKELRVIESGPHCANTEIIVKLSDGRELCLDPKENWVQRVVEKFLKRAENSGSGSYTYNYEWHVDVWGQGLLVTVSSAS light: not shown | 23 AFU | 4.3 | 
IgG with VH4-4+CDR3-IL8 (antibody, IgG; VH cloned before human IgG1 CH1-CH2-CH3 in HC pFuse; also called VH4-4 BLVCDR3IL8) VH: QVQLQESGPGLVKPSETLSLTCTVSGGSISSYYWSWIRQPAGKGLEWIGRIYTSGSTNYNPSLKSRVTMSVDTSKNQFSLKLSSVTAADTAVYYCTSVHQETKKYQSPRSAKELRCQCIKTYSKPFHPKFIKELRVIESGPHCANTEIIVKLSDGRELCLDPKENWVQRVVEKFLKRAENSGSGSYTYNYEWHVDVWGQGLLVTVSSAS light: not shown | 3080 AFU | 3.1 | 
